Measured values as given in patent US20190092846A1 (Novartis, published 2019).
Where a chain is given by its changes, count along the chain named.

B1: MOR14797 (antibody, human IgG1, kappa, V domains shown)
VH: QVTLRESGPALVKPTQTLTLTCTFSGFSLSTSGMGVGWIRQPPGKALEWLAHIYWNDDKSYSTSLKTRLTISKDTSKNQVVLTMTNMDPVDTATYYCARDFYYSGYFDSWGQGTLVTVSS
VL: DIQMTQSPSSLSASVGDRVTITCRASQDISNYLNWYQQKPGKAPKLLIFGASSLQSGVPSRFSGSGSGTDFTLTISSLQPEDFATYYCQQTNTMNTFGQGTKVEIKR
notes: (no LALA)
B2: MOR14797 Fab (Fab, V domains shown)
VH: B1 VH
VL: B1 VL
notes: also called Fab fragment of MOR14797
B3: MOR14799 (antibody, human IgG1, lambda, V domains shown)
VH: QVQLVQSGAEVKKPGESLKISCKGSGYSFTRYYVAWVRQMPGKGLEWMGWIDPGQSNTRYSPSFQGQVTISADKSISTAYLQWSSLKASDTAMYYCARMLAWGWFDYWGQGTLVTVSS
VL: SYELTQPLSVSVALGQTARITCSGDNLGGYYAHWYQQKPGQAPVLVIYDKSDRPSGIPERFSGSNSGNTATLTISRAQAGDEADYYCASYDSSLMMVFGGGTKLTVLG
B4: MOR14805 (antibody, human IgG1, lambda, V domains shown)
VH: B3 VH with Q55T
VL: B3 VL
B5: MOR14800 (antibody, human IgG1, lambda, V domains shown)
VH: B3 VH
VL: B3 VL with K50T
B6: MOR14809 (antibody, human IgG1, lambda, V domains shown)
VH: QVQLVQSGAEVKKPGESLKISCKGSGYSFTRYWIAWVRQMPGKGLEWMGIIDPGTSDTRYSPSFQGQVTISADKSISTAYLQWSSLKASDTAMYYCARIDKSLILHSAFDYWGQGTLVTVSS
VL: SYELTQPLSVSVALGQTARITCSGDNLGGYYAYWYQQKPGQAPVLVIYETNNRPSGIPERFSGSNSGNTATLTISRAQAGDEADYYCASTTQDYLVFVFGGGTKLTVLG
B7: 1D11 (antibody, V domains shown)
VH: QVQLQQSGPELVRPGASVKLSCKASGYIFITYWMNWVKQRPGQGLEWIGQIFPASGSTNYNEMFEGKATLTVDTSSSTAYMQLSSLTSEDSAVYYCARGDGNYALDAMDYWGQGTSVTVSS
VL: DIVLTQSPASLAVSLGQRATISCRASESVDSYGNSFMHWYQQKSGQPPKLLIYLASNLESGVPARFSGSGSRTDFTLTIDPVEADDAATYYCQQNNEDPLTFGAGTKLEIK
B8: MOR14787 (antibody, human IgG1, kappa, V domains shown)
VH: QVQLVQSGAEVKKPGSSVKVSCKASGGTFSSYAISWVRQAPGQGLEWMGVIVPKWGHPQYAQKFQGRVTITADESTSTAYMELSSLRSEDTAVYYCAREGDFVVLVLTEHYMGGFDVWGQGTLVTVSS
VL: DIQMTQSPSSLSASVGDRVTITCRASQSIDEYLNWYQQKPGKAPKLLIYAGSNLQSGVPSRFSGSGSGTDFTLTISSLQPEDFATYYCLQGYSYPRTFGQGTKVEIKR

Tests used:
[1] = molecular target: T1, human TGF-β1 (human, UniProt P01137 279-390); test: cell-based or functional assay
T1 sequence (P01137 279-390 limits assumed): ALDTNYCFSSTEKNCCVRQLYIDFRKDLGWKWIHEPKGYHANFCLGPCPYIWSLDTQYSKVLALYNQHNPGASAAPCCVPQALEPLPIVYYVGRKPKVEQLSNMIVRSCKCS

[2] = molecular target: T2, mouse recombinant TGF-β2 (mouse, UniProt P27090 303-414); test: cell-based or functional assay
T2 sequence (looked up): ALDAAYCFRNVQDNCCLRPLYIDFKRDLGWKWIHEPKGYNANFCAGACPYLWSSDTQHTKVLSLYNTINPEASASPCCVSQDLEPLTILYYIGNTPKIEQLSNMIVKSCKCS

[3] = molecular target: T3, human recombinant TGF-β2 (human, UniProt P09858 303-414 (pig entry)); test: cell-based or functional assay
T3 sequence: T2 sequence (looked up) with T59S, K60R, N94K

[4] = molecular target: T4, human TGF-β3 (human, UniProt P10600 301-412); test: cell-based or functional assay
T4 sequence: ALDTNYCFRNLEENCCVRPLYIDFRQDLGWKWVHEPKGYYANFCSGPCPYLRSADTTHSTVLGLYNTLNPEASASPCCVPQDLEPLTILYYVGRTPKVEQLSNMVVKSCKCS

[5] = molecular target: T1, human TGF-β1; test: not named in the sentence (it points to Table 4)
[6] = molecular target: T3, human recombinant TGF-β2; test: ratio with the conservative KD of 100 fM
[7] = molecular target: T2, mouse recombinant TGF-β2; test: BiaCORE (surface plasmon resonance)
[8] = molecular target: T3, human recombinant TGF-β2; test: BiaCORE (surface plasmon resonance)
[9] = molecular target: T4, human TGF-β3; test: BiaCORE (surface plasmon resonance)
[10] = molecular target: T3, human recombinant TGF-β2; test: conservative reading of the KD value of Table 4
[11] = molecular target: T3, human recombinant TGF-β2; test: ratio of the KD values of Table 4
[12] = molecular target: T5, human TGFβ-2 (residues 303-414, SEQ ID NO: 122) (human, UniProt P61812 303-414); test: X-ray crystal structure of the complex
T5 construct: Construct of the crystal structure with the MOR14797 Fab; also called TGFβ-2 dimer (chains A and B)
T5 sequence: T2 sequence (looked up) with T59S, K60R, N94K
Procedure: As detailed below, the individual components of the complex were produced using separate expression systems and were combined to generate the purified complex. X-ray crystallography was then employed to generate diffraction data for TGFβ-2 bound to the MOR14797 Fab, elucidating the antigen-binding site.
The TGFβ-2-MOR14797 complex was concentrated to 20 mg/ml, followed by centrifugation at 20,000×g for 10 min prior to dispensing crystallization screens. Crystals were grown at 20° C. using a sitting drop vapor diffusion setup. 0.1 μl of the TGFβ-2-MOR14797 complex was mixed with 0.1 μl of a reservoir solution containing 0.1 M HEPES (pH 7.5) and 70% (v/v) MPD, and the drop was equilibrated against 45 μl of the reservoir solution. Crystals were flash-cooled directly in liquid nitrogen and were sent to the Advanced Photon Source (Argonne National Laboratory, USA) for collection of diffraction data at beamline 17-ID. Datasets were processed using autoPROC (version 1.1.6, Global Phasing Ltd.) to a resolution of 2.4 Å in space group P2₁2₁2₁ with cell dimensions a=77.2 Å, b=122.1 Å, c=130.1 Å, α=90°, β=90°, and γ=90°. […] The Rwork and Rfree values are 17.5% and 23.0%, respectively. The RMSD values for the bond lengths and angles were 0.008 Å and 1.054°.

[13] = molecular target: T3, human recombinant TGF-β2; test: conservative reading of the KD value of Table 4; conservative interpretation of the Table 4 KD, not a new measurement
[14] = molecular target: T1, human TGF-β1; test: cell-based or functional assay; remark: listed apart in the source

Binder | RGA (CAGA-12 luc/Smad-2/3 RGA; IC 50 [pM]) [1] [pM] | CK (IC 50 [pM]), Skeletal Muscle Cell Differentiation Assay (Creatine Kinase) [2] [pM] | RGA (CAGA-12 luc/Smad-2/3 RGA; IC 50 [pM]) [2] [pM] | CK (IC 50 [pM]), Skeletal Muscle Cell Differentiation Assay (Creatine Kinase) [3] [pM] | RGA (CAGA-12 luc/Smad-2/3 RGA; IC 50 [pM]) [3] [pM] | RGA (CAGA-12 luc/Smad-2/3 RGA; IC 50 [pM]) [4] [pM] | binding result [5] | fold lower KD for TGFβ2 than for TGFbeta-3 [6] [fold] | Kd [7] [pM] | Kd [8] [pM] | Kd [9] [nM] | Kd [10] [pM] | fold lower KD for TGFbeta-2 than for TGFbeta-3 [11] [fold] | binding result [12] | fold lower KD for TGFβ2 than for TGFbeta 3 [6] [fold] | Kd [13] [pM] | fold lower KD for TGFβ2 than for TGFbeta 3 [11] [fold] | IC50 (read off the curve) (CAGA-12 luciferase reporter gene assay, HEK293T/17) [14] [nM]
B1 | > 100000 | 1500 | 329 | 105 | 8.4 | > 100000 | no binding | 270000 | 0.633 | 0.00446 | 27.4 | ≤ 0.1 | 6e+06 |  |  |  |  | 
B2 |  |  |  |  |  |  |  |  |  |  |  |  |  | binds |  |  |  | 
B3 | > 100000 | 909 | 138 | 1050 | 78 | > 100000 | no binding |  | 0.00277 | 0.00108 | 0.0199 |  |  |  | 200 | ≤ 0.1 | > 18000 | 
B4 | > 100000 | 629 | 248 | 315 | 106 | > 100000 | no binding |  |  | 0.97 | 0.0705 |  | 73 |  |  |  |  | 
B5 | > 100000 | 1200 | 123 | 491 | 29 | > 100000 | no binding |  | 0.00109 |  | > 1000 | ≤ 0.1 |  |  |  |  |  | 
B6 | > 100000 | 800 | 598 | 220 | 94 | > 100000 | no binding |  | 0.00236 | 0.0524 | > 1000 | ≤ 0.1 |  |  |  |  |  | 
B7 | 108 |  |  |  | 4370 | 32 |  |  |  | 117 | 0.02 |  |  |  |  |  | 17 | ~0.5
B8 | > 100000 | 3000 | > 100000 | 366 | 2.8 | > 100000 | no binding |  | 1.89 |  | > 1000 |  |  |  |  |  |  | 
